Test results as given in US20230151085A1 (TRINOMAB BIOTECH, published 2023).

T1: human neurotrophin-3 (hNT-3) (human, UniProt P20783 139-257)
T1 construct: Bought protein (Absin)
T1 sequence (looked up): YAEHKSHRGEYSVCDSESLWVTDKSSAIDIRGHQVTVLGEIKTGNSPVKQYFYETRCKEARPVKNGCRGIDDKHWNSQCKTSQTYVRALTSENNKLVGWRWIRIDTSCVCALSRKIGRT

T2: human brain-derived neurotrophic factor (hBDNF) (human, UniProt P23560 129-247)
T2 construct: Bought protein (Absin)
T2 sequence (looked up): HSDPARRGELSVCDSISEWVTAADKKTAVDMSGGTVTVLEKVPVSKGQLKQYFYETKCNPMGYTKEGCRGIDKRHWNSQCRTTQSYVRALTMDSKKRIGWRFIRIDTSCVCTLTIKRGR

T3: human neurotrophin-4 (hNT-4) (human, UniProt P34130 81-210)
T3 construct: Bought protein (Absin)
T3 sequence (looked up): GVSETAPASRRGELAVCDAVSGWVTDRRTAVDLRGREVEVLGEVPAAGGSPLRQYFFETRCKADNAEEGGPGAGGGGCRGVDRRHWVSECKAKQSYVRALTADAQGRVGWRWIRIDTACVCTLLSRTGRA

B1: human anti-NGF antibody TRN1027 (antibody, V domains shown)
VH: QLQLQESGSGLVRPSQTLSLTCAVSGDSMNSGGYSWSWIRQPPGKGLEWIGYIYYSGSTHYNPSLESRVTLSLHRSKNQFFLQLSSVTAADTAVYYCARTLWFGEFEGFDPWGQGILVTVSS
VL: QSALTQPPSASGSPGQSVTISCTGTSSDVGGYNFVSWYQHHPGKAPKLLLYEVSKRPSGVPDRFSGSKSGNTASLTVSGLQAEDEADYFCSSFAGSNNFVFFGGGTKLTVL
B2: anti-NGF antibody Tanezumab (CAS No. 880266-57-9, published in CN 102746399 B, also known as E3) (antibody, V domains shown)
VH: QVQLQESGPGLVKPSETLSLTCTVSGFSLIGYDLNWIRQPPGKGLEWIGIIWGDGTTDYNSAVKSRVTISKDTSKNQFSLKLSSVTAADTAVYYCARGGYWYATSYYFDYWGQGTLVTVSS
VL: DIQMTQSPSSLSASVGDRVTITCRASQSISNNLNWYQQKPGKAPKLLIYYTSRFHSGVPSRFSGSGSGTDFTFTISSLQPEDIATYYCQQEHTLPYTFGQGTKLEIKR

What was measured:
[1] = target: T1, human neurotrophin-3 (hNT-3); test: ELISA, neurotrophin coated on plate, goat anti-human IgG-HRP detection
Experimental: (§1) The present invention determines the cross-reactivity of antibody TRN1027 to other neurotrophins by ELISA. HBDNF, hNT-3 and hNT-4 (Absin) were used as antigens to coat the 96-well plate at […] overnight at 4° C., respectively. Then the plate was blocked with the blocking solution for 2 hours at ambient temperature. The plate was added with antibody TRN1027 with decreasing concentrations (ranging from 10 ug/ml-0 ug/ml) at 100 ul/well and incubated at 37° C. for 1 h. Antibody TRN1027 was detected by TMB with goat-anti-human IgG-HRP (1: 10000) and the substrate developer. OD values were measured at dual wavelengths of 450-630 nm.

[2] = target: T2, human brain-derived neurotrophic factor …; test: as above
Experimental: as §1

[3] = target: T3, human neurotrophin-4 (hNT-4); test: as above
Experimental: as §1

[4] = target: T4, human nerve growth factor (hNGF) (human, UniProt P01138 122-241); test: ELISA, hNGF coated at 2 ug/mL, antibody titrated from 10 ug/mL, goat anti-human IgG-HRP
T4 construct: Bought protein (Sino Biological)
T4 sequence (P01138 122-241 limits assumed): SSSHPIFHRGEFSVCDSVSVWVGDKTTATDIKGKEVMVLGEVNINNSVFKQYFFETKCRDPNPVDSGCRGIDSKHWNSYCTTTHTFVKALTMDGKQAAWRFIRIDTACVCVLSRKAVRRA
Experimental: Antibody TRN1027 was tested for binding activity to hNGF by the ELISA assay. Specifically, 2 μg/mL of hNGF as an antigen was diluted and coated with carbonate buffer at pH 9.6 in a 96-well plate overnight at 4° C.; the plate was blocked by the blocking solution at 37° C. for 2 h. The antibody TRN1027 was serial diluted with the blocking solution, starting at 10 μg/mL, 3-fold dilution for 12 gradients; each gradient of antibody TRN1027 was then added to a 96-well plate and incubated for 1 h at 37° C. The plate was washed with the PBST buffer, added with 100 μ/well LHRP labeled goat anti-human IgG (1: 10000), and incubate at 37° C. for 1 h. The plate was washed with the PBST buffer, added with 100 μL/well TMB developing solution away from light, and placed for 5 min at 37° C. H₂SO₄ was added to stop the reaction. The detection was conducted at 450 nm wavelength. The results were calculated and analyzed.

[5] = target: T4, human nerve growth factor (hNGF); test: cell-based or functional assay
[6] = target: T4, human nerve growth factor (hNGF); test: SPR (BIACORE3000), antibody captured by anti-human IgG (Fc) on CM5 chip, hNGF as analyte
Source text: The binding force between an antibody and an antigenic determinant, called antibody affinity, reflects the ability of the antibody molecule to bind to the antigenic determinant. In this example, the antigen binding affinity of antibody TRN1027 was detected using surface plasmon resonance analysis (BIACORE3000). Anti-human IgG (Fc) antibody was immobilized on the surface of CM5 sensor chip (GE) by amino-coupling method. The anti-NGF antibody was captured as a ligand, the capture level reached about 400 RU. Different concentrations of hNGF protein were passed through the detection channel as the analyte streams. The binding of antigen to antibody and dissociation of the bound complex was monitored in real-time. Kinetic analysis (calculation of dissociation constants (KD)) was performed with the Biacore X100 Evaluation Software (2.0.1).

Row | Binder | binding result [1] | binding result [2] | binding result [3] | EC50 [4] | EC50 of inhibition of NGF-induced proliferation of TF-1 cells (MTS) [5] | EC50 of neutralisation of NGF on PC-12 cells (Celltiter-Glo cell viability) [5] | Kd [6]
1 | B1 | no binding (tested: 10 ug/ml-0 ug/ml) | no binding (tested: 10 ug/ml-0 ug/ml) | no binding (tested: 10 ug/ml-0 ug/ml) | 1.07 ng/mL | 3.01 ng/mL | 8.83 ng/mL | 0.0168 nM
2 | B2 |  |  |  | 2.96 ng/mL | 14.3 ng/mL | 32.2 ng/mL | 
